Test results: patent US20190284544

Tests used:
CAPN5p.372-378 peptide = CAPN5p.372-378 peptide (UniProt O15484)
[1] = tested on: homologous regions of other CAPN members
[2] = tested on: CAPN5-370-380 peptide (RQNRGGGCINH)

Chain of CAPN5-R243L (chain, as listed by the source R243L): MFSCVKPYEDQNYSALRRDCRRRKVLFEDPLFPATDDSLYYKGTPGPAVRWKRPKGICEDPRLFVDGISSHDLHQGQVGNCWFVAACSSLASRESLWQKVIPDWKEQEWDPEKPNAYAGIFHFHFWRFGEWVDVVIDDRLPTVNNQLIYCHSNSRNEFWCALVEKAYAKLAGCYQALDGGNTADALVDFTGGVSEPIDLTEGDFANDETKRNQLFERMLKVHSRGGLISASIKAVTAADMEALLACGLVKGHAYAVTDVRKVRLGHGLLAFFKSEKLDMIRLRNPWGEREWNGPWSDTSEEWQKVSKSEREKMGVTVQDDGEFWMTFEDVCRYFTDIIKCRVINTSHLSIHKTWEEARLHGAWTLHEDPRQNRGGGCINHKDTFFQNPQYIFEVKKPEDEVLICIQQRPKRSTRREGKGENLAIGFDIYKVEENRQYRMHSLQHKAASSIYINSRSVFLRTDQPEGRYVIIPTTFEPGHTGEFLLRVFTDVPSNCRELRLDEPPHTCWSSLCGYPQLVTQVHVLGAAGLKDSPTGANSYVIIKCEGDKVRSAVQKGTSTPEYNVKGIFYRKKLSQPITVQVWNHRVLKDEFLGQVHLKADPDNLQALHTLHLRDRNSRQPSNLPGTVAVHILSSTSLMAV
Chain of CAPN5-370-390 peptide (chain, as listed by the source): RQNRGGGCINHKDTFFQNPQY
Chain of Pep-1-Mod (chain, as listed by the source): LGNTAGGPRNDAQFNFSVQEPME
Chain of CAPN1 WT (P07384 2-714): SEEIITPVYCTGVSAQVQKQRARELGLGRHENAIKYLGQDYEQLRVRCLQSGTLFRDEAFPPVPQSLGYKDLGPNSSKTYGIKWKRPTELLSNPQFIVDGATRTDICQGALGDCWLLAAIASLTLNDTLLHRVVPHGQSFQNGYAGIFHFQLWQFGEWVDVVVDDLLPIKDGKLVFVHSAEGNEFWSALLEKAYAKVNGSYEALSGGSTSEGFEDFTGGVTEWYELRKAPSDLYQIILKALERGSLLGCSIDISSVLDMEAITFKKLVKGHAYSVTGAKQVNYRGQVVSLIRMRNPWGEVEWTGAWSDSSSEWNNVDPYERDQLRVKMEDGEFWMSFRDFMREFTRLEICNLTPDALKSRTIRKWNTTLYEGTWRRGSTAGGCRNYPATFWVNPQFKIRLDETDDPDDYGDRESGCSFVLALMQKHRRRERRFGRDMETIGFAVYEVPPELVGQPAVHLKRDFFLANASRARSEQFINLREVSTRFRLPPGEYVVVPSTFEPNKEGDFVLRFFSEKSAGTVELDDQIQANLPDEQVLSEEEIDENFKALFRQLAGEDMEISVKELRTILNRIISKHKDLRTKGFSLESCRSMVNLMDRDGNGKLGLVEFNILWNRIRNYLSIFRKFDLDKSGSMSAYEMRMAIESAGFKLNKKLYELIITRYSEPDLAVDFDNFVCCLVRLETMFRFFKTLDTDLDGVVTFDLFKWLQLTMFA
Chain of Pep-2-Mod (chain, as listed by the source): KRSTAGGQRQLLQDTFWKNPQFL
Chain of CAPN14 peptide (chain, as listed by the source): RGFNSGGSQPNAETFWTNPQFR

What does the source list for CAPN5 WT (Homo sapiens calpain 5)?
initial reaction rate (proteolysis of CAPN5p.370-80 by CAPN5 WT) (Cyclic CAPN5 p.370-80): Addition of 10 µM Cyclic CAPN5 p.370-80 slows the initial reaction rate by 40%; initial velocity versus substrate concentration, with and without 10 µM cyclic peptide (Cyclic CAPN5 p.370-80): Increasing concentrations of substrate does not overcome inhibition by cyclic peptide; proteolysis (CAPN14 peptide): there was some proteolysis of the CAPN14 peptide; proteolysis (EPLFAERK peptide): it is not proteolyzed by CAPN5; proteolysis (fluorescence) (EPLFAERK peptide): very limited proteolysis when incubated with CAPN5-WT; cleavage (fluorescence) (CAPN5-370-390 peptide): The 21 aa peptide was cleaved slower and does not show cleavage substrate inhibition; cleavage (fluorescence) (CAPN5p.372-378 peptide): There was mild cleavage of the 7 aa peptide was observed; proteolysis [1]: CAPN5 did not proteolyze homologous regions of other CAPN members as well as it proteolyzed its own site; cleavage (change in fluorescence) [2]: the CAPN5-370-380 fragment was the most sensitive to cleavage by both WT and R243L CAPN5; cleavage (fluorescence) [2]: rapid and high cleavage of the 11 aa peptide; fluorescent intensity (FRET substrate proteolysis) [2]: CAPN5-WT proteolyzes the substrate, CAPN5 (p370-380), at a higher rate than other peptides; proteolysis (fluorescence) [2]: The peptide shows high proteolysis when incubated with CAPN5-WT

With CAPN5-R243L as the substance, how does the “fluorescent intensity (FRET substrate proteolysis)” value (“fluorescent intensity” below) (PDGFB (155-170) peptide) read?
The value was “the greatest fluorescent intensity is detected with substrates CAPN5 (p370-390), CAPN5 (370-380), and PDGFB (155-170)”.

And the “fluorescent intensity” value (CAPN5-370-390 peptide)?
Its value is “the greatest fluorescent intensity is detected with substrates CAPN5 (p370-390), CAPN5 (370-380), and PDGFB (155-170)”.

What about the “cleavage (change in fluorescence)” value [2] of the same substance?
Its value is “the CAPN5-370-380 fragment was the most sensitive to cleavage by both WT and R243L CAPN5”.

What about the “fluorescent intensity” value [2] of the same substance?
Its value is “the greatest fluorescent intensity is detected with substrates CAPN5 (p370-390), CAPN5 (370-380), and PDGFB (155-170)”.

Which “reaction rate (initial velocity of proteolysis)” value (Pep-2-Mod) does the source give for MBP-CAPN5 WT here?
Its value is “Modification of the amino acids slows the reaction rate”.

What about the “reaction rate (initial velocity of proteolysis)” value (Pep-1-Mod) of the same substance?
The value was “Modification of the amino acids slows the reaction rate”.

For CAPN1 WT, which proteolysis [1] is on record?
Its proteolysis is “CAPN1 does not appear to proteolyze these regions”.
